This is an account of results in PMC4705658.

In data set [1] the target is T1, Gbp2 RRM3 (Saccharomyces cerevisiae, UniProt P25555 330-427).
T1 sequence: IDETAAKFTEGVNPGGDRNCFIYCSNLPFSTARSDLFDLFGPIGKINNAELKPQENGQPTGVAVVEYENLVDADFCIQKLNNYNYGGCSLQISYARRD
Nature of the data set: NMR HSQC titration.

The target in the next data set is T2, Hrb1 RRM2 (Saccharomyces cerevisiae, UniProt P38922 261-338).
T2 sequence: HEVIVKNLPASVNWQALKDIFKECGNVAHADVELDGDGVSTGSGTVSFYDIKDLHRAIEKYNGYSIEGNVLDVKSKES
Nature of the data set: fluorescence EMSA.

In the next data set the target is T3, Gbp2 RRM123 (Saccharomyces cerevisiae, UniProt P25555 122-427).
T3 sequence: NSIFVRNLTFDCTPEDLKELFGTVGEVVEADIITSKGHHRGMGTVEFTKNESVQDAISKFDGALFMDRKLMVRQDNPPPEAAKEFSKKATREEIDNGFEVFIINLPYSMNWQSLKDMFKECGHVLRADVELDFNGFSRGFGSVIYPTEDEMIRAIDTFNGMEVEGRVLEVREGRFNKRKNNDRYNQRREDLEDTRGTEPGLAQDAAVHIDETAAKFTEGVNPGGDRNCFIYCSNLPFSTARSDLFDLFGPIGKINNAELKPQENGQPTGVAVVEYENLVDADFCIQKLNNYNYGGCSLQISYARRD
Nature of the data set: fluorescence anisotropy.

The target in another data set is T4, Gbp2 RRM12 (Saccharomyces cerevisiae, UniProt P25555 122-316).
T4 sequence: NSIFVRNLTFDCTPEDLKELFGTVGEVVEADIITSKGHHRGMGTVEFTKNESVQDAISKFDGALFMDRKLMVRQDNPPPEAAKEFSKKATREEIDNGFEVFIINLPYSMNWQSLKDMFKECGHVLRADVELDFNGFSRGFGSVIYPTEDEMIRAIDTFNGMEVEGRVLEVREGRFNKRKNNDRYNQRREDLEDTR
Nature of the data set: fluorescence anisotropy.

A further data set concerns the target T5, Gbp2 RRM2 (Saccharomyces cerevisiae, UniProt P25555 219-316).
T5 sequence: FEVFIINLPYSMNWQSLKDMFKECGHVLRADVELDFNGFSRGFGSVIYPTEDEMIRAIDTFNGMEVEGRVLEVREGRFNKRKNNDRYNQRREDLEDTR
The experiment in a line: fluorescence anisotropy.

For data set [2], the target named is T1, Gbp2 RRM3. Nature of the data set: fluorescence anisotropy.

B1: U12 (ssRNA)
RNA: UUUUUUUUUUUU
Turning to B1, in the data set with Gbp2 RRM3 [1], the binding result was “no binding”.

B2: TG-43 (ssDNA)
DNA: GTGGTGGGTGGGTGTGTGTGGGTGTGGTGGGTGTGTGGGTGTG
B2: the binding result with Hrb1 RRM2 was “no binding”. Further, the Kd with Gbp2 RRM123 is around 0.059 µM.

B3: A12 (ssRNA)
RNA: AAAAAAAAAAAA
Turning to B3, in the data set with Gbp2 RRM3 [1], the binding result is “no binding”.

B4: Selex RNA UUGGUGUU (ssRNA)
RNA: UUGGUGUU
For B4, the Kd with Gbp2 RRM123 worked out at 3.3 ± 0.8 µM; in the data set with Gbp2 RRM12, 5.5 ± 0.7 µM; with Gbp2 RRM2, 54 ± 4 µM. In addition, the binding result in the data set with Gbp2 RRM3 [2] is “no binding”.

B5: d(TTGGTGTT) (ssDNA)
DNA: TTGGTGTT
As for B5, the Kd with Gbp2 RRM123 stood at 17 ± 2 µM; in the data set with Gbp2 RRM12, 24 ± 2 µM; with Gbp2 RRM2, 310 ± 90 µM. Moreover, the binding result in the data set with Gbp2 RRM3 [2] was “no binding”.
